The target of the assay is T1, human Desmoglein 2 (Dsg2) (human, UniProt Q14126 50-1118).
T1 construct: whole, on cells; Endogenous protein; In flow cytometry it stood on the surface of H1, H9 and iPSC cells; In immunoprecipitation and Western blotting it came from lysate of (surface-biotinylated) H9 cells, with bands of 165 kDa or 100 kDa
T1 sequence (looked up): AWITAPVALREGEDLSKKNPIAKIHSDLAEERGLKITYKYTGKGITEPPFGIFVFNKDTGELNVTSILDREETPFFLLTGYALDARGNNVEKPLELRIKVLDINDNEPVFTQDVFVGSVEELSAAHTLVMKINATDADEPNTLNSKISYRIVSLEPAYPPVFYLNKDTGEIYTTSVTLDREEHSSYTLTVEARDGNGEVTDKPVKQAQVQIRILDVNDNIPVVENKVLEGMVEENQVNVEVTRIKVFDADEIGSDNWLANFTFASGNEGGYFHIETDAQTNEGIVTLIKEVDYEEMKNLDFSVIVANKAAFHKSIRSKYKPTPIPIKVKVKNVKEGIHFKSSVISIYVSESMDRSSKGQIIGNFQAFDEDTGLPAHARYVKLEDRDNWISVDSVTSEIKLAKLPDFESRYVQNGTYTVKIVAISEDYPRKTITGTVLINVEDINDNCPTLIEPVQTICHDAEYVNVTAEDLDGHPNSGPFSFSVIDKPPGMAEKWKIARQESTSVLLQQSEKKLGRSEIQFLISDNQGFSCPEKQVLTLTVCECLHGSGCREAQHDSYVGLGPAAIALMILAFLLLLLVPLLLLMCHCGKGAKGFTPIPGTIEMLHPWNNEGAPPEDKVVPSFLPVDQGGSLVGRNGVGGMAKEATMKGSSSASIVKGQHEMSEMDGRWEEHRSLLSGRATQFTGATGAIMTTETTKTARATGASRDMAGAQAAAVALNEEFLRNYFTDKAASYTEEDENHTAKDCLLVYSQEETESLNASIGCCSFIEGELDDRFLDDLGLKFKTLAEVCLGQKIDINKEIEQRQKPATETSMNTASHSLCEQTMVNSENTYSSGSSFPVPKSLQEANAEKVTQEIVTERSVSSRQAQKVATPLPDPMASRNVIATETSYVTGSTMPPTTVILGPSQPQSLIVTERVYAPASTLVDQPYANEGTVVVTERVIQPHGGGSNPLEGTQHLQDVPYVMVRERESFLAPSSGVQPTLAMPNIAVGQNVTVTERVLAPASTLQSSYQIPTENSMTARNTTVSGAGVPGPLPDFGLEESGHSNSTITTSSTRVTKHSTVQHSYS
The experiment in a line: flow cytometry, fluorescence staining of H1, H9 and iPSC cells (endogenous Dsg2 on the surface). Here is the method: Among those clones prepared in Example 2, the hybridoma clone which secreted the antibody comparatively stably was selected and the binding capacity to human pluripotent stem cells was investigated. Particularly, the cultured human pluripotent stem cells were separated by using collagenase IV. The cells were treated with cell separation buffer (GIBCO) for 20 minutes at 37° C., leading to the separation of the cells as single cells. The cells were passed through 40 μm strainer, and 2×10⁵ cells proceeded to flow cytometry. The human pluripotent stem cells prepared as single cells were suspended in PBA (1% BSA was dissolved in PBS), followed by reaction with the antibody supernatant at 4° C. for 30 minutes. Centrifugation was performed at 4° C. at 1200 rpm for 5 minutes and 100 μl of the supernatant was eliminated. The anti-mouse Ig-FITC (BD) was diluted (1:200). […]
To investigate the binding capacity of the antibody 6-1 purified in Example <3-2> to human pluripotent stem cells, fluorescence staining was performed by the same manner as described in Example <3-1> (FIG. 2A). […] In FIG. 2A, the blue line illustrates the fluorescence staining of human pluripotent stem cells with the monoclonal antibody 6-1, wherein the antibody 6-1 bound to all of those three kinds of human pluripotent stem cells.
(In flow cytometry, cells or beads pass a laser one at a time.)

B1: monoclonal antibody 6-1 (antibody, V domains shown)
VH: QVKLQESGPELVRPGESVKISCKGSGYTFTDYAMHWVKQSPAKTLEWLGVISIYYDNTNYNQKFKGKATLTVDKSSSTAYMELARLTSEDSAIYYCAREGDYFALDYWGQGTSVTVSS
VL: DIVMTQSPAIMSASPGEKVTMTCSASSSVSYMYWYQQKPGSSPRLLIYDTSNLASGVPVRFSGSGSGTSYSLTISRMEAEDAATYYCQQWSSFPLTFGAGTKLELKR
notes: Mouse monoclonal antibody from hybridoma 6-1 (Balb/c mouse immunised with H9 cells, fused with NS1 myeloma); Purified from ascites on protein G-sepharose; hybridoma supernatant was used for screening; They were cloned with an IgG1 constant region primer and a kappa chain constant region primer
In the case of B1, the binding result was “binds”.

The values above are taken from patent publication US20160097096A1 (KOREA RESEARCH INSTITUTE OF BIOSCIENCE AND BIOTECHNOLOGY, published 2016).
